# Laboratory results as given in patent publication US20190367625A1, “AMHRII-BINDING COMPOUNDS FOR PREVENTING OR TREATING CANCERS” (GAMAMABS PHARMA, priority 2017, published 2019).
# “Also recorded” adds a separate entry of the source.
# B1: 3C23K anti-AMHRII monoclonal antibody (antibody, human IgG1, kappa, V domains shown)
# VH: QVRLVQSGAEVKKPGASVKVSCKASGYTFTSYHIHWVRQAPGQRLEWMGWIYPGDDSTKYSQKFQGRVTITRDTSASTAYMELSSLRSEDTAVYYCTRGDRFAYWGQGTLVTVSS
# VL: DIQMTQSPSTLSASVGDRVTITCRASSSVRYIAWYQQKPGKAPKLLTYPTSSLKSGVPSRFSGSGSGTEFTLTISSLQPDDFATYYCLQWSSYPWTFGGGTKVEIKR
# notes: Humanized antibody; also called GM102; GamaMabs's Ab
# B2: 3C23K: humanized anti-AMHRII monoclonal antibody; VH SEQ ID NO 19, VL SEQ ID NO 36 (antibody, V domains shown)
# VH: B1 VH
# VL: DIQMTQSPSTLSASVGDRVTITCRASSSVRYIAWYQQKPGKAPKLLTYPTSSLKSGVPSRFSGSGSGTEFTLTISSLQPDDFATYYCLQWSSYPWTFGGGTKVEIK
# modifications: Synthetic 3C23K/3C23; Synthetic 3C23K
# Legend:
# [1] = system: HuPrime® HCC xenograft model LI1097; experiment: Efficacy study in HuPrime HCC xenograft model LI1097 (tumor volume, TGI, T/C, T-C); type: in vivo, BALB/c nude mice; settings: for Tumor Volume: mean ± SEM; for anti-tumor activity against HCC xenograft (in words): LI1097, compared with sorafenib
# Description: To evaluate preclinically the in vivo efficacy of GamaMabss' anti-AMHR2 monoclonal antibody, named GM102 in the treatment of Huprime® HCC xenograft model LI1097 in Balb/C nude mice. The model LI1097 was selected after a screening for AMHR2 transcription processed by CrownBio, using RNAseq (transcriptome sequencing). Further, AMHR2 membranous protein expression of this model was confirmed by Institut Curie, France, using IHC.
# • Strain: BALB/c Nude • Age: 7-8 weeks (Treatment starting) • Gender: female • Total #: 32 mice plus spare
# • HuPrime® Liver cancer model L11097 derived from a HCC patient was selected for this efficacy study. This model reached 1000 mm^3 in 20-25 days post inoculation.
# • Product identification: GamaMabs's Ab (3C23K) • Manufacturer: GamaMabs Pharma • Lot number: R18H2-LP01 • Batch: 04GAM140513API • Quantity needed: 255 mg based on animal BW of 25 g with 50% spare • Package and storage condition: [30 ml/tube], 30 ml, [2-8° C.] • Concentration: 10.1 g/L • Product identification: Sorafenib • Manufacturer: Melonepharma • Lot number: D1111A • Quantity needed: 300 mg based on animal BW of 25 g with 50% spare • Package and storage condition: 400 mg, [RT]
# Tumor fragments from stock mice inoculated with selected primary human cancer tissues were harvested and used for inoculation into BALB/c nude mice. Each mouse was inoculated subcutaneously at the right flank with primary human HCC model LI1097 fragment (R12P4, 2-4 mm in diameter) for tumor development on Jun. 9, 2015. The parent mouse number was #80150. #80151 and #80153. The mice were grouped when the average tumor size reached about 145 mm^3 on Jun. 24, 2015. Mice were allocated randomly into 4 experimental groups according to their tumor sizes. Each group consisted of 8 mice, 4 mice per cage. The day was denoted as day 0. The test articles were administered to the tumor-bearing mice from day 0 (Jun. 24, 2015) through day 27 (Jul. 21, 2015) according to pre-determined regimen shown in Section 1.1 Experimental Design.
# Tumor size were measured twice weekly in two dimensions using a caliper, and the volume is expressed in mm^3 using the formula: TV=0.5 a×b^2, where a and b are the long and short diameters of the tumor, respectively. The tumor size is then used for calculations of TGI, T/C, and T-C values according to the description in the Table 2 in Abbreviations.
# The study was ended after 28 days treatment and mice were sacrificed.
# Summary statistics, including mean and the standard error of the mean (SEM), are provided for the tumor volume of each group at each time point. Statistical analysis of difference in tumor volume among the groups was evaluated using a one-way ANOVA followed by multiple comparisons using Games-Howell. All data were analyzed using SPSS 16.0. P<0.05 was considered to be statistically significant.
# [2] = Body weight and tolerability in LI1097 tumor-bearing mice; type: in vivo; settings: for body weight loss observed in treated mice: mean; for tolerability / toxic events (in words): LI1097 tumor-bearing mice, antibody 20 and 50 mg/kg i.v., sorafenib 50 mg/kg p.o.
# Description: When individual mouse has a body weight loss ≥20%, the mouse will be given dosing holiday(s) until its body weight recovers to the baseline.
# All the procedures related to animal handling, care, and the treatment in this study were performed according to guidelines approved by the Institutional Animal Care and Use Committee (IACUC) of CrownBio following the guidance of the Association for Assessment and Accreditation of Laboratory Animal Care (AAALAC). At the time of routine monitoring, the animals were checked for any effects of tumor growth on normal behavior such as mobility, food and water consumption (by looking only), body weight gain/loss, eye/hair matting and any other abnormal effect. Death and observed clinical signs were recorded on the basis of the numbers of animals within each subset.
# Under following conditions, the in-life experiment of individual animal or whole groups will be terminated, by humane euthanization, prior to death, or before reaching a comatose state. • In a continuing deteriorating condition with severe clinical signs of severe distress and/or pain, inaccessible to adequate food or water; • Significant body mass (emaciated) (>20%); • Individual mouse with tumor size exceeding 3000 mm^3 or MTV>2000 mm^3.
# [3] = target: T1, AMHRII (form used for the Kd not stated) (human, UniProt Q16671 18-149, limits assumed)
# T1 construct: Neither the construct nor the assay behind the Kd is described
# T1 sequence (Q16671 18-149 limits assumed): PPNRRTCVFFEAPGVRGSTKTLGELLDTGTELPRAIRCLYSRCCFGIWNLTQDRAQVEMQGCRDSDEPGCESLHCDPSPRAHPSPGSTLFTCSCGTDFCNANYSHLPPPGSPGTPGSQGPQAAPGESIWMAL
# [4] = system: Champions TumorGraft® model CTG-0401 (human colorectal cancer); experiment: Efficacy study in model CTG-0401 of human colorectal cancer; type: in vivo, Athymic Nude-Foxn1nu mice; settings: 20 mg/kg IP BIWx4; comparator Irinotecan 100 mg/kg IP Q7Dx3; listed as GM102
# Description: Stock mice (Athymic Nude-Foxn1^nu from Envigo) were implanted with tumor fragments from Champions TumorGraft® model CTG-0401. After the tumors reached 1000-1500 mm^3, they were harvested and the tumor fragments were implanted SC in the left flank of the female study mice. Each animal was implanted with a specific passage lot: passage 6 for CTG-0401. Tumor growth was monitored twice a week using digital calipers and the tumor volume (TV) was calculated using the formula (0.52×[length×width^2]). After the tumor volume reached 175±7 mm^3, mice were selected based on their tumor size and were randomly allocated into 4 groups of 12 animals per group (Day 0). After the initiation of dosing on Day 0, animals were weighed twice per week using a digital scale and TV was measured twice per week and also on the final day of study. The study was terminated when the mean tumor volume in the vehicle control group reached 1500 mm^3 or up to Day 60, whichever occurred first.
# [5] = 50 mg/kg, QD × 4 weeks, p.o., day 13
# [6] = 20 mg/kg, BIW × 4 weeks, i.v., day 13
# [7] = 50 mg/kg, BIW × 4 weeks, i.v., day 13
molecule,measurement,setting,value
"CNC(=O)c1cc(Oc2ccc(NC(=O)Nc3ccc(Cl)c(C(F)(F)F)c3)cc2)ccn1 [Sorafenib, reference compound]",T-C (days) at 1000 mm^3,"[1]; 50 mg/kg, QD × 4 weeks, p.o.",8 days
same,Tumor Volume,"[1]; 50 mg/kg, QD × 4 weeks, p.o., day 0",145.18 ± 16.97 mm^3
same,Tumor Volume,"[1]; 50 mg/kg, QD × 4 weeks, p.o., day 2",321.35 ± 45.66 mm^3
same,Tumor Volume,"[1]; 50 mg/kg, QD × 4 weeks, p.o., day 6",493.84 ± 65.13 mm^3
same,Tumor Volume,"[1]; 50 mg/kg, QD × 4 weeks, p.o., day 9",695.20 ± 66.81 mm^3
same,T/C (%),[1]; [5],35.1%
same,TGI (%),[1]; [5],64.9%
same,Tumor Volume,[1]; [5],891.50 ± 103.33 mm^3
same,Tumor Volume,"[1]; 50 mg/kg, QD × 4 weeks, p.o., day 16",1135.40 ± 133.62 mm^3
same,Tumor Volume,"[1]; 50 mg/kg, QD × 4 weeks, p.o., day 20",1478.84 ± 189.62 mm^3
same,Tumor Volume,"[1]; 50 mg/kg, QD × 4 weeks, p.o., day 23",1627.4 ± 202.91 mm^3
same,Tumor Volume,"[1]; 50 mg/kg, QD × 4 weeks, p.o., day 27",1829.66 ± 256.4 mm^3
same,body weight change at study termination,"[2]; 50 mg/kg, QD × 4 weeks, p.o.",−7.63%
same,mean maximum body weight loss,"[2]; 50 mg/kg, QD × 4 weeks, p.o., day 27 of treatment",7.63%
same,body weight loss observed in treated mice,"[2]; 50 mg/kg, QD × 4 weeks, p.o.",7%
same,body weight loss observed in treated mice,"[2]; 50 mg/kg, QD × 4 weeks, p.o., listed as sorafenib",up to 7%
B1,Kd,[3],55.3 pM
B2,T-C (days) at 1000 mm^3,"[1]; 20 mg/kg, BIW × 4 weeks, i.v.",3 days
same,Tumor Volume,"[1]; 20 mg/kg, BIW × 4 weeks, i.v., day 0",145.15 ± 16.79 mm^3
same,Tumor Volume,"[1]; 20 mg/kg, BIW × 4 weeks, i.v., day 2",358.57 ± 51.86 mm^3
same,Tumor Volume,"[1]; 20 mg/kg, BIW × 4 weeks, i.v., day 6",665.09 ± 85.00 mm^3
same,Tumor Volume,"[1]; 20 mg/kg, BIW × 4 weeks, i.v., day 9",952.12 ± 171.45 mm^3
same,T/C (%),[1]; [6],48.7%
same,TGI (%),"[1]; 20 mg/kg, BIW × 4 weeks, i.v., day 13, listed as GamaMabs's Ab",51.3%
same,Tumor Volume,[1]; [6],1179.90 ± 232.26 mm^3
same,Tumor Volume,"[1]; 20 mg/kg, BIW × 4 weeks, i.v., day 16",1479.51 ± 292.49 mm^3
same,Tumor Volume,"[1]; 20 mg/kg, BIW × 4 weeks, i.v., day 20",1973.13 ± 372.07 mm^3
same,Tumor Volume,"[1]; 20 mg/kg, BIW × 4 weeks, i.v., day 23",1814.59 ± 231.17 mm^3
same,Tumor Volume,"[1]; 20 mg/kg, BIW × 4 weeks, i.v., day 27",2081.67 ± 213.28 mm^3
same,T-C (days) at 1000 mm^3,"[1]; 50 mg/kg, BIW × 4 weeks, i.v.",5 days
same,Tumor Volume,"[1]; 50 mg/kg, BIW × 4 weeks, i.v., day 0",145.24 ± 16.38 mm^3
same,Tumor Volume,"[1]; 50 mg/kg, BIW × 4 weeks, i.v., day 2",297.78 ± 46.32 mm^3
same,Tumor Volume,"[1]; 50 mg/kg, BIW × 4 weeks, i.v., day 6",532.71 ± 104.17 mm^3
same,Tumor Volume,"[1]; 50 mg/kg, BIW × 4 weeks, i.v., day 9",751.81 ± 176.15 mm^3
same,T/C (%),[1]; [7],45.7%
same,TGI (%),"[1]; 50 mg/kg, BIW × 4 weeks, i.v., day 13, listed as GamaMabs's Ab",54.3%
same,Tumor Volume,[1]; [7],1117.12 ± 302.85 mm^3
same,Tumor Volume,"[1]; 50 mg/kg, BIW × 4 weeks, i.v., day 16",1476.74 ± 407.93 mm^3
same,Tumor Volume,"[1]; 50 mg/kg, BIW × 4 weeks, i.v., day 20",1602.61 ± 481.85 mm^3
same,Tumor Volume,"[1]; 50 mg/kg, BIW × 4 weeks, i.v., day 23",1148.22 ± 381.49 mm^3
same,Tumor Volume,"[1]; 50 mg/kg, BIW × 4 weeks, i.v., day 27",1454.47 ± 479.27 mm^3
same,anti-tumor activity against HCC xenograft (in words),[1],of the same order of magnitude as sorafenib
same,anti-tumor activity against HCC xenograft (in words),[1]; listed as GamaMabs's Ab,close to that induced by sorafenib
same,body weight change at study termination,"[2]; 20 mg/kg, BIW × 4 weeks, i.v.",2.68%
same,body weight change at study termination,"[2]; 50 mg/kg, BIW × 4 weeks, i.v.",-0.38%
same,tolerability / toxic events (in words),[2],no detectable toxic event
same,tolerability / toxic events (in words),[2]; listed as GM102,not accompanied by any toxic event
same,tolerability / toxic events (in words),[2]; listed as GamaMabs's Ab,No animal death or significant body weight loss; also recorded: well tolerated
same,"in vivo anti-tumor effect against AMHRII-expressing human colorectal tumor (in words, FIG. 10)",[4],efficient in vivo anti-tumor effect; also recorded: indistinguishable from the anti-tumor effect of the mainly used anti-colon cancer molecule Irinotecan
